{"source": "patent US20120164754", "about": "“KIT AND METHOD OF DETERMINING NUCLEOTIDE SEQUENCE OF TARGET NUCLEIC ACID” (SAMSUNG ELECTRONICS CO., LTD., published 2012)", "binders": {"B1": {"name": "target nucleic acid (Zif268 target) (dsDNA)", "DNA 1": "GTGTGTGTGTGATCTGCGTGGGCGGTAAG", "DNA 2": "CTTACCGCCCACGCAGATCACACACACAC"}}, "target": "Zif268-HMGa1-mCherry fusion protein (Mus musculus? (Zif268) / Homo sapiens …)", "sequence (chain, as listed by the source)": "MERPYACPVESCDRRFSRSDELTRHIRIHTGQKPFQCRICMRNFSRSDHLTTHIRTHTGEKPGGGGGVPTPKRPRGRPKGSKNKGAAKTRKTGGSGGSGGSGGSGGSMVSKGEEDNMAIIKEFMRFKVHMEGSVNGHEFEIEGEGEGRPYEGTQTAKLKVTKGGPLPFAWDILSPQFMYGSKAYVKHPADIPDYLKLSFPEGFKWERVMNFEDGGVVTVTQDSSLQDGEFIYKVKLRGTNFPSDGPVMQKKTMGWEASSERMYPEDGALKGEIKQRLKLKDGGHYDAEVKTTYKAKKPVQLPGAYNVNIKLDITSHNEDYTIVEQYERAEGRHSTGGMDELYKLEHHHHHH", "assay": "SPR; about 140 nM; target immobilised on CM5 chip (Biacore)", "procedure": "Affinity of the fusion proteins prepared in Example 1 to a target nucleic acid nucleotide sequence was measured using a surface plasmon resonance (SPR) system (Biacore) to determine the equilibrium dissociation constant, Kd, for forming the fusion protein-target nucleic acid complex. After immobilization of the target nucleic acid (SEQ ID NO. 9) to a CM5 chip, the fusion proteins were loaded into the microfluidic chamber of the SPR."}
{"binder": "B1", "values": [{"measurement": "Kd", "result": 140, "unit": "nM"}]}
